Results as given in paper PMC10397247.

Assays:
Experiment in all cases: two-hybrid library CCmax;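 note: natural log of median RNA to DNA barcode read ratio; higher means stronger binding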
4H1360-AA = molecular target: T1, 4H1360-AA
T1 chain: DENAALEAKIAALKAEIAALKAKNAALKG

4H1454-AA = molecular target: T2, 4H1454-AA; conditions: mean of both orientations
T2 chain: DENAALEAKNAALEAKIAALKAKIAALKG

4H1558-AA = molecular target: T3, 4H1558-AA; conditions: mean of both orientations
T3 chain: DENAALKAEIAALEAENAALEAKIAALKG

4H1913-AA = molecular target: T4, 4H1913-AA; conditions: mean of both orientations
T4 chain: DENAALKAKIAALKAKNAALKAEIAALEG

4H249-AA = molecular target: T5, 4H249-AA; conditions: mean of both orientations
T5 chain: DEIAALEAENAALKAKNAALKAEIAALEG

4H2580-AA = molecular target: T6, 4H2580-AA; conditions: mean of both orientations
T6 chain: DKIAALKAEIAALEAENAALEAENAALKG

4H2621-AA = molecular target: T7, 4H2621-AA; conditions: mean of both orientations
T7 chain: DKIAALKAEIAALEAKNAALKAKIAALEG

4H2699-AA = molecular target: T8, 4H2699-AA; conditions: mean of both orientations
T8 chain: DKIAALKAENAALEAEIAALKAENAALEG

4H2728-AA = molecular target: T9, 4H2728-AA; conditions: mean of both orientations
T9 chain: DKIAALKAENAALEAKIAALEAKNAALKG

4H2774-AA = molecular target: T10, 4H2774-AA; conditions: mean of both orientations
T10 chain: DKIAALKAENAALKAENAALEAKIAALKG

4H2903-AA = molecular target: T11, 4H2903-AA; conditions: mean of both orientations
T11 chain: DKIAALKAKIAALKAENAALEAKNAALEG

4H2961-AA = molecular target: T12, 4H2961-AA; conditions: mean of both orientations
T12 chain: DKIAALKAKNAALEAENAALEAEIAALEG

4H3049-AA = molecular target: T13, 4H3049-AA; conditions: mean of both orientations
T13 chain: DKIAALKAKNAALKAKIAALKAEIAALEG

4H3129-AA = molecular target: T14, 4H3129-AA; conditions: mean of both orientations
T14 chain: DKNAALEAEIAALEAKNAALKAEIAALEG

4H341-AA = molecular target: T15, 4H341-AA; conditions: mean of both orientations
T15 chain: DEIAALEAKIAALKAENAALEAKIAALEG

4H3414-AA = molecular target: T16, 4H3414-AA; conditions: mean of both orientations
T16 chain: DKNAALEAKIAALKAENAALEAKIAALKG

4H3595-AA = molecular target: T17, 4H3595-AA; conditions: mean of both orientations
T17 chain: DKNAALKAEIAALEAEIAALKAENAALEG

4H3629-AA = molecular target: T18, 4H3629-AA; conditions: mean of both orientations
T18 chain: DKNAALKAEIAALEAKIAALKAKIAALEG

4H3782-AA = molecular target: T19, 4H3782-AA; conditions: mean of both orientations
T19 chain: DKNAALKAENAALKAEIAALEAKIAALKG

4H380-AA = molecular target: T20, 4H380-AA; conditions: mean of both orientations
T20 chain: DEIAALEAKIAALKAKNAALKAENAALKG

4H3939-AA = molecular target: T21, 4H3939-AA; conditions: mean of both orientations
T21 chain: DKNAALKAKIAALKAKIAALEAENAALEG

4H3969-AA = molecular target: T22, 4H3969-AA; conditions: mean of both orientations
T22 chain: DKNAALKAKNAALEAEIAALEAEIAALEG

4H446-AA = molecular target: T23, 4H446-AA; conditions: mean of both orientations
T23 chain: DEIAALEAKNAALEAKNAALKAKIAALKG

4H464-AA = molecular target: T24, 4H464-AA; conditions: mean of both orientations
T24 chain: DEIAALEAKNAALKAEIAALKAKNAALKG

4H483-AA = molecular target: T25, 4H483-AA; conditions: mean of both orientations
T25 chain: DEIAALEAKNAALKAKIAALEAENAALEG

4H63-AA = molecular target: T26, 4H63-AA; conditions: mean of both orientations
T26 chain: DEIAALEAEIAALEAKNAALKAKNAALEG

4H1821-AA = molecular target: T27, 4H1821-AA
T27 chain: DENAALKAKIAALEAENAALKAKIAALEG

4H1828-AA = molecular target: T28, 4H1828-AA; conditions: mean of both orientations
T28 chain: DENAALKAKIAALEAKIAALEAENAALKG

4H1930-AA = molecular target: T29, 4H1930-AA; conditions: mean of both orientations
T29 chain: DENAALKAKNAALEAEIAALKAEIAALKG

4H2124-AA = molecular target: T30, 4H2124-AA; conditions: mean of both orientations
T30 chain: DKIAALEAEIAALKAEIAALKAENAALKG

4H2165-AA = molecular target: T31, 4H2165-AA; conditions: mean of both orientations
T31 chain: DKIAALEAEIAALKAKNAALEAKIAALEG

4H2253-AA = molecular target: T32, 4H2253-AA; conditions: mean of both orientations
T32 chain: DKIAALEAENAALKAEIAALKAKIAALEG

4H2330-AA = molecular target: T33, 4H2330-AA; conditions: mean of both orientations
T33 chain: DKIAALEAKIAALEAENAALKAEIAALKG

4H2343-AA = molecular target: T34, 4H2343-AA; conditions: mean of both orientations
T34 chain: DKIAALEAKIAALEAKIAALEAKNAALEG

4H2466-AA = molecular target: T35, 4H2466-AA; conditions: mean of both orientations
T35 chain: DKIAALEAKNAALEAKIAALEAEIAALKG

4H2592-AA = molecular target: T36, 4H2592-AA; conditions: mean of both orientations
T36 chain: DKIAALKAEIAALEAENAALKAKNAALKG

4H2732-AA = molecular target: T37, 4H2732-AA; conditions: mean of both orientations
T37 chain: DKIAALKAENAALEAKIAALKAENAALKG

4H2931-AA = molecular target: T38, 4H2931-AA; conditions: mean of both orientations
T38 chain: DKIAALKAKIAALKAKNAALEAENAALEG

4H3001-AA = molecular target: T39, 4H3001-AA
T39 chain: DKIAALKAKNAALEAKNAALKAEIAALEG

4H3015-AA = molecular target: T40, 4H3015-AA; conditions: mean of both orientations
T40 chain: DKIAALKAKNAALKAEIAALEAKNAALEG

4H3073-AA = molecular target: T41, 4H3073-AA; conditions: mean of both orientations
T41 chain: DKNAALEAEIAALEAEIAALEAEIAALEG

4H3438-AA = molecular target: T42, 4H3438-AA; conditions: mean of both orientations
T42 chain: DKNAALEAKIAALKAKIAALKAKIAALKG

4H347-AA = molecular target: T43, 4H347-AA; conditions: mean of both orientations
T43 chain: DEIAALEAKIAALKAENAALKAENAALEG

4H406-AA = molecular target: T44, 4H406-AA; conditions: mean of both orientations
T44 chain: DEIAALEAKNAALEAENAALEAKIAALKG

4H452-AA = molecular target: T45, 4H452-AA; conditions: mean of both orientations
T45 chain: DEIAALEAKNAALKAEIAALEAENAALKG

4H56-AA = molecular target: T46, 4H56-AA; conditions: mean of both orientations
T46 chain: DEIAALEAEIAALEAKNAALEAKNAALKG

4H_APH = molecular target: T47, 4H_APH; conditions: mean of both orientations
T47 chain: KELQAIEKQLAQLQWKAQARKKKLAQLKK

4H_BCR = molecular target: T48, 4H_BCR; conditions: mean of both orientations
T48 chain: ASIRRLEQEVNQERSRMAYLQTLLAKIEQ

4H_GCN4 = molecular target: 4H_GCN4
GCN2_T = conditions: mean of both orientations

4H_GCN4, sequence (chain, as listed by the source): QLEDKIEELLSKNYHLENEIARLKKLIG

B1: 4H1360-AA (peptide)
chain: DENAALEAKIAALKAEIAALKAKNAALKG
**Q.** For B1, which interaction score (4H1360-AA) is on record?
**A.** The interaction score was -0.121.

**Q.** And the interaction score (4H1454-AA)?
**A.** Its interaction score is -1.08.

**Q.** And the interaction score (4H1558-AA)?
**A.** The interaction score was -0.811.

**Q.** And the interaction score (4H1913-AA)?
**A.** The interaction score was -1.61.

**Q.** What about the interaction score (4H249-AA) of the same binder?
**A.** Its interaction score is -1.76.

**Q.** What about the interaction score (4H2580-AA) of the same binder?
**A.** The interaction score was 1.2.

**Q.** What about the interaction score (4H2621-AA) of the same binder?
**A.** Its interaction score is -1.11.

**Q.** And the interaction score (4H2699-AA)?
**A.** The interaction score was 0.416.

**Q.** And the interaction score (4H2728-AA)?
**A.** The interaction score was -1.69.

**Q.** What about the interaction score (4H2774-AA) of the same binder?
**A.** The interaction score was -1.2.

**Q.** And the interaction score (4H2903-AA)?
**A.** The interaction score was 0.0597.

**Q.** And the interaction score (4H2961-AA)?
**A.** The interaction score was -1.52.

**Q.** And the interaction score (4H3049-AA)?
**A.** Its interaction score is -0.108.

**Q.** And the interaction score (4H3129-AA)?
**A.** Its interaction score is -1.34.

**Q.** And the interaction score (4H341-AA)?
**A.** Its interaction score is 0.0278.

**Q.** What about the interaction score (4H3414-AA) of the same binder?
**A.** Its interaction score is -1.25.

**Q.** And the interaction score (4H3595-AA)?
**A.** Its interaction score is 2.

**Q.** And the interaction score (4H3629-AA)?
**A.** The interaction score was 0.958.

**Q.** What about the interaction score (4H3782-AA) of the same binder?
**A.** The interaction score was -0.0635.

**Q.** What about the interaction score (4H380-AA) of the same binder?
**A.** The interaction score was -1.11.

**Q.** What about the interaction score (4H3939-AA) of the same binder?
**A.** The interaction score was 0.656.

**Q.** And the interaction score (4H3969-AA)?
**A.** The interaction score was 0.163.

**Q.** What about the interaction score (4H446-AA) of the same binder?
**A.** The interaction score was -1.69.

**Q.** What about the interaction score (4H464-AA) of the same binder?
**A.** Its interaction score is -1.69.

**Q.** What about the interaction score (4H483-AA) of the same binder?
**A.** The interaction score was -1.58.

**Q.** And the interaction score (4H63-AA)?
**A.** Its interaction score is 0.265.

B2: 4H1821-AA (peptide)
chain: DENAALKAKIAALEAENAALKAKIAALEG
**Q.** For B2, which interaction score (4H1821-AA) is on record?
**A.** Its interaction score is 1.48.

**Q.** What about the interaction score (4H1828-AA) of the same binder?
**A.** Its interaction score is -2.13.

**Q.** And the interaction score (4H1930-AA)?
**A.** Its interaction score is -1.43.

**Q.** What about the interaction score (4H2124-AA) of the same binder?
**A.** Its interaction score is -1.19.

**Q.** And the interaction score (4H2165-AA)?
**A.** Its interaction score is -1.28.

**Q.** What about the interaction score (4H2253-AA) of the same binder?
**A.** The interaction score was -0.989.

**Q.** And the interaction score (4H2330-AA)?
**A.** Its interaction score is -0.746.

**Q.** And the interaction score (4H2343-AA)?
**A.** Its interaction score is -1.42.

**Q.** And the interaction score (4H2466-AA)?
**A.** The interaction score was -1.51.

**Q.** And the interaction score (4H249-AA)?
**A.** Its interaction score is -1.68.

**Q.** What about the interaction score (4H2592-AA) of the same binder?
**A.** The interaction score was -1.24.

**Q.** What about the interaction score (4H2732-AA) of the same binder?
**A.** The interaction score was -1.04.

**Q.** And the interaction score (4H2774-AA)?
**A.** Its interaction score is -1.53.

**Q.** And the interaction score (4H2931-AA)?
**A.** Its interaction score is -1.77.

**Q.** What about the interaction score (4H3001-AA) of the same binder?
**A.** The interaction score was -1.51.

**Q.** What about the interaction score (4H3015-AA) of the same binder?
**A.** Its interaction score is -1.83.

**Q.** And the interaction score (4H3073-AA)?
**A.** The interaction score was -1.15.

**Q.** And the interaction score (4H3438-AA)?
**A.** Its interaction score is -1.77.

**Q.** What about the interaction score (4H347-AA) of the same binder?
**A.** The interaction score was -1.26.

**Q.** What about the interaction score (4H406-AA) of the same binder?
**A.** Its interaction score is -1.34.

**Q.** And the interaction score (4H452-AA)?
**A.** The interaction score was -1.25.

**Q.** What about the interaction score (4H56-AA) of the same binder?
**A.** The interaction score was -1.44.

**Q.** What about the interaction score (4H_APH) of the same binder?
**A.** Its interaction score is -2.19.

**Q.** What about the interaction score (4H_BCR) of the same binder?
**A.** Its interaction score is -1.69.

**Q.** What about the interaction score (4H_GCN4) of the same binder?
**A.** The interaction score was -1.85.

**Q.** What about the interaction score (GCN2_T) of the same binder?
**A.** Its interaction score is -1.68.
